From publication PMC6220267 (2018)
One block for each binder: values may come before it.

Assays:
Assay in all cases: BLI
Aβ42 monomers = Aβ42 monomers (UniProt P05067 672-713)
Aβ40 monomers = Aβ40 monomers (UniProt P05067 672-711)
Aβ42 oligomers (soluble) [1] = target: T1, Aβ42 oligomers (soluble) (UniProt P05067 672-713)
Aβ42 oligomers (soluble) [2] = target: T1, Aβ42 oligomers (soluble); remark: listed apart in the source

Kd (Aβ42 oligomers (soluble) [1]): 1 pM
koff (Aβ42 oligomers (soluble) [2]): 1e-07 s⁻¹
B2: soluble mouse Treml1‐Fc (soluble ectodomain) (Fc fusion)
chain: DSHPEVLQAPVGSSILVQCHYRLQDVRALKVWCQFLQEGCHPLVTSAVDRRAPGNGRIFLTDLGGGLLQVEMVTLQEEDTGEYGCVVEGAAGPQTLHRVSLLVLPPVPGPREGEEAEDEKETYRIGTGSLLEDPSLDPSASAGPHEFRRRENSIP

Kd (Aβ42 oligomers (soluble) [1]): 1 pM
koff (Aβ42 oligomers (soluble) [2]): 1e-07 s⁻¹
B4: soluble mouse Trem2‐Fc (soluble ectodomain) (Fc fusion)
chain: LNTTVLQGMAGQSLRVSCTYDALKHWGRRKAWCRQLGEEGPCQRVVSTHGVWLLAFLKKRNGSTVIADDTLAGTVTITLKNLQAGDAGLYQCQSLRGREAEVLQKVLVEVLEDPLDDQDAGDLWVPEESSSFEGAQVEHSTSRNQETSFPPTS

Second part, the binder before the results:

B1: soluble TREM2‐Fc (soluble ectodomain of human TREM2 fused to the Fc domain of human IgG4, V5 epitope) (Fc fusion)
chain: HNTTVFQGVAGQSLQVSCPYDSMKHWGRRKAWCRQLGEKGPCQRVVSTHNLWLLSFLRRWNGSTAITDDTLGGTLTITLRNLQPHDAGLYQCQSLHGSEADTLRKVLVEVLADPLDHRDAGDLWFPGESESFEDAHVEHSISRSLLEGEIPFPPTS
Kd (Aβ42 monomers): 290000 pM
Kd (Aβ40 monomers): 140000 pM

B3: soluble TREML1‐Fc (human, soluble ectodomain) (Fc fusion)
chain: QGIVGSLPEVLQAPVGSSILVQCHYRLQDVKAQKVWCRFLPEGCQPLVSSAVDRRAPAGRRTFLTDLGGGLLQVEMVTLQEEDAGEYGCMVDGARGPQILHRVSLNILPPEEEEETHKIGSLAENAFSDPAGSANPLEPSQDEKSIP
Kd (Aβ42 oligomers (soluble) [1]): 1 pM
koff (Aβ42 oligomers (soluble) [2]): 1e-07 s⁻¹
